In the data set the target is Bh-RNase HC (RNase HI catalytic domain, D132N) (Bacillus halodurans (genomic DNA from …, UniProt Q9KEI9 58-196, D132N)). Nature of the data set: X-ray crystallography.

The source of these data is article PMC3689302.

B1: Dickerson-Drew dodecamer (DDD) (dsDNA)
DNA 1: CGCGAATTCGCG
DNA 2: CGCGAATTCGCG
With B1, the binding result is given as “binds”.
